The text below walks through data of patent US20250186614A1, “COMPACT DRUG RESPONSIVE DOMAINS FOR REGULATION OF FUNCTION/ABUNDANCE AND DELIVERY OF POLYPEPTIDE PAYLOADS” (OBSIDIAN THERAPEUTICS, INC., priority 2022, published 2025).

B1: FKBP-085: FKBP13 trunc1WT DRD Q72R, Q84E, A117H; SEQ ID NO: 35 (protein)
chain: CPIKSRKGDVLHMHYTGKLEDGTEFDSSLPRNQPFVFSLGTGEVIKGWDQGLLGMCEGEKRKLVIPSELGYGERGHPPKIPGGATLVFEVELLKIER
modifications: truncated (trunc1); Description of sequence: FKBP13-AcGFP-mCherry Fusion; Construct Name: FKBP-085; FKBP13 DRD in Construct : FKBP13 trunc1WT (mutated to match FKBP12 active site Q72R Q84E A117H) (DRD - WT)
B2: FKBP-084: FKBP13 trunc2 DRD Q72R, Q84E, A117H, M54A; SEQ ID NO: 34 (protein)
chain: PIKSRKGDVLHAHYTGKLEDGTEFDSSLPRNQPFVFSLGTGEVIKGWDQGLLGMCEGEKRKLVIPSELGYGERGHPPKIPGGATLVFEVELLKIER
modifications: truncated (trunc2); Description of sequence: FKBP13-AcGFP-mCherry Fusion; Construct Name: FKBP-084; FKBP13 DRD in Construct : FKBP13 trunc2 (mutated to match FKBP12 active site Q72R Q84E A117H) (DRD - M54A)
B3: FKBP-094: FKBP13 DRD Q72R, Q84E, A117H, P107S; SEQ ID NO: 44 (protein)
chain: HCPIKSRKGDVLHMHYTGKLEDGTEFDSSLPRNQPFVFSLGTGEVIKGWDQGLLGMCEGEKRKLVISSELGYGERGHPPKIPGGATLVFEVELLKIER
modifications: Description of sequence: FKBP13-AcGFP-mCherry Fusion; Construct Name: FKBP-094; FKBP13 DRD in Construct : FKBP13 (mutated to match FKBP12 active site Q72R Q84E A117H) (DRD - P107S)
B4: FKBP-095: FKBP13 DRD Q72R, Q84E, A117H, P122S; SEQ ID NO: 45 (protein)
chain: HCPIKSRKGDVLHMHYTGKLEDGTEFDSSLPRNQPFVFSLGTGEVIKGWDQGLLGMCEGEKRKLVIPSELGYGERGHPPKISGGATLVFEVELLKIER
modifications: Description of sequence: FKBP13-AcGFP-mCherry Fusion; Construct Name: FKBP-095; FKBP13 DRD in Construct : FKBP13 (mutated to match FKBP12 active site Q72R Q84E A117H) (DRD - P122S)
B5: FKBP-097: FKBP13 DRD Q72R, Q84E, A117H, E100S; SEQ ID NO: 47 (protein)
chain: HCPIKSRKGDVLHMHYTGKLEDGTEFDSSLPRNQPFVFSLGTGEVIKGWDQGLLGMCEGSKRKLVIPSELGYGERGHPPKIPGGATLVFEVELLKIER
modifications: Description of sequence: FKBP13-AcGFP-mCherry Fusion; Construct Name: FKBP-097; FKBP13 DRD in Construct : FKBP13 (mutated to match FKBP12 active site Q72R Q84E A117H) (DRD - E100S)
B6: FKBP-122: FKBP13 DRD Q72R, Q84E, A117H, I136V; SEQ ID NO: 72 (protein)
chain: HCPIKSRKGDVLHMHYTGKLEDGTEFDSSLPRNQPFVFSLGTGEVIKGWDQGLLGMCEGEKRKLVIPSELGYGERGHPPKIPGGATLVFEVELLKVER
modifications: Description of sequence: FKBP13-AcGFP-mCherry Fusion; Construct Name: FKBP-122; FKBP13 DRD in Construct : FKBP13 (mutated to match FKBP12 active site Q72R Q84E A117H) (DRD I136V)
B7: FKBP-121: FKBP13 DRD Q72R, Q84E, A117W, I136V; SEQ ID NO: 71 (protein)
chain: HCPIKSRKGDVLHMHYTGKLEDGTEFDSSLPRNQPFVFSLGTGEVIKGWDQGLLGMCEGEKRKLVIPSELGYGERGWPPKIPGGATLVFEVELLKVER
modifications: Description of sequence: FKBP13-AcGFP-mCherry Fusion; Construct Name: FKBP-121; FKBP13 DRD in Construct : FKBP13 (mutated to match FKBP12 active site Q72R Q84E A117W) (DRD I136V)
B8: FKBP-128: FKBP13 DRD Q72R, Q84E, A117W, H53L; SEQ ID NO: 78 (protein)
chain: HCPIKSRKGDVLLMHYTGKLEDGTEFDSSLPRNQPFVFSLGTGEVIKGWDQGLLGMCEGEKRKLVIPSELGYGERGWPPKIPGGATLVFEVELLKIER
modifications: Description of sequence: FKBP13-AcGFP-mCherry Fusion; Construct Name: FKBP-128; FKBP13 DRD in Construct : FKBP13 (mutated to match FKBP12 active site Q72R Q84E A117W) (DRD H53L)
B9: FKBP-127: FKBP13 DRD Q72R, Q84E, A117W, F76Q; SEQ ID NO: 77 (protein)
chain: HCPIKSRKGDVLHMHYTGKLEDGTEFDSSLPRNQPQVFSLGTGEVIKGWDQGLLGMCEGEKRKLVIPSELGYGERGWPPKIPGGATLVFEVELLKIER
modifications: Description of sequence: FKBP13-AcGFP-mCherry Fusion; Construct Name: FKBP-127; FKBP13 DRD in Construct : FKBP13 (mutated to match FKBP12 active site Q72R Q84E A117W) (DRD F76Q)
B10: FKBP-123: FKBP13 DRD Q72R, Q84E, A117W, G49S; SEQ ID NO: 73 (protein)
chain: HCPIKSRKSDVLHMHYTGKLEDGTEFDSSLPRNQPFVFSLGTGEVIKGWDQGLLGMCEGEKRKLVIPSELGYGERGWPPKIPGGATLVFEVELLKIER
modifications: Description of sequence: FKBP13-AcGFP-mCherry Fusion; Construct Name: FKBP-123; FKBP13 DRD in Construct : FKBP13 (mutated to match FKBP12 active site Q72R Q84E A117W) (DRD G49S)
B11: FKBP-124: FKBP13 DRD Q72R, Q84E, A117H, G49S; SEQ ID NO: 74 (protein)
chain: HCPIKSRKSDVLHMHYTGKLEDGTEFDSSLPRNQPFVFSLGTGEVIKGWDQGLLGMCEGEKRKLVIPSELGYGERGHPPKIPGGATLVFEVELLKIER
modifications: Description of sequence: FKBP13-AcGFP-mCherry Fusion; Construct Name: FKBP-124; FKBP13 DRD in Construct : FKBP13 (mutated to match FKBP12 active site Q72R Q84E A117H) (DRD G49S)
B12: FKBP-126: FKBP13 DRD Q72R, Q84E, A117H, D62S; SEQ ID NO: 76 (protein)
chain: HCPIKSRKGDVLHMHYTGKLESGTEFDSSLPRNQPFVFSLGTGEVIKGWDQGLLGMCEGEKRKLVIPSELGYGERGHPPKIPGGATLVFEVELLKIER
modifications: Description of sequence: FKBP13-AcGFP-mCherry Fusion; Construct Name: FKBP-126; FKBP13 DRD in Construct : FKBP13 (mutated to match FKBP12 active site Q72R Q84E A117H) (DRD D62S)
B13: FKBP-125: FKBP13 DRD Q72R, Q84E, A117W, D62S; SEQ ID NO: 75 (protein)
chain: HCPIKSRKGDVLHMHYTGKLESGTEFDSSLPRNQPFVFSLGTGEVIKGWDQGLLGMCEGEKRKLVIPSELGYGERGWPPKIPGGATLVFEVELLKIER
modifications: Description of sequence: FKBP13-AcGFP-mCherry Fusion; Construct Name: FKBP-125; FKBP13 DRD in Construct : FKBP13 (mutated to match FKBP12 active site Q72R Q84E A117W) (DRD D62S)
B14: FKBP-129: FKBP13 DRD Q72R, Q84E, A117W, E98L; SEQ ID NO: 79 (protein)
chain: HCPIKSRKGDVLHMHYTGKLEDGTEFDSSLPRNQPFVFSLGTGEVIKGWDQGLLGMCLGEKRKLVIPSELGYGERGWPPKIPGGATLVFEVELLKIER
modifications: Description of sequence: FKBP13-AcGFP-mCherry Fusion; Construct Name: FKBP-129; FKBP13 DRD in Construct : FKBP13 (mutated to match FKBP12 active site Q72R Q84E A117W) (DRD E98L)

One assay concerns Jurkat cells. The assay is described as follows: Tacrolimus dose response of FKBP13-AcGFP-mCherry constructs stably transduced into Jurkat cells, GFP MFI by flow cytometry. It is filed as cell-based. The following applies: tacrolimus dose response, Jurkat cells stably transduced (FIG. 10); Table 5. How it is done: The regulation of AcGFP, from FKBP13-AcGFP-mCherry constructs, in Jurkat cells, was also studied. Jurkat Clone E6-1 cells were cultured in standard media (RPMI+GlutaMAX Supplement (Life Technologies, Carlsbad, CA Cat #61870127), Fetal Bovine Serum (FBS) (Life Technologies Cat #10-082-147)). Jurkat cells were transduced with lentivirus produced with each of FKBP-039, FKBP-040, FKBP-041, FKBP-042, FKBP-043, FKBP-044, or FKBP-045 constructs. Jurkat cells were transduced until they were 10-25% positive, as determined on day 5 post-transduction, by using mCherry as a transduction marker. […] The Geometric Mean Fluorescent Intensity (MFI) of GFP expression in mCherry+ cells was plotted and dose response curve fits were performed using Prism Software (San Diego, CA).
FKBP-091 was used as a comparative construct.
FIGS. 22-38 show the results of characterization of FKBP-160-292. […] FKBP-091 and FKBP-117 was used as a comparative control for FKBP-160-FKBP-255. FKBP-195 was used as a comparative control for FKBP-256-FKBP-275. FKBP-117, FPBP-195 and FKBP-251 were used as a comparative control for FKBP-276-FKBP-292.
FKBP mutants were cloned in a manner to make a fusion protein with AcGFP in order to assess FKBP mutant regulation by using AcGFP expression as a readout. […] Further iterative FKBP mutants (FKBP-256-FKBP-292) were constructed from these initial combinatorial mutants to see if we could further improve FKBP DRD properties.
(In flow cytometry, cells or beads pass a laser one at a time.)
Consider B1, for which the “Fold Change” value is reported as 16.09.

For B2, the “Fold Change” value is 12.42.

On to B3, for which the “Fold Change” value is 13.5.

B4: the “Fold Change” value stood at 31.4.

B5: the “Fold Change” value is 36.75.

The assay is the same for the next values; noted with them: tacrolimus, Jurkat cells stably transduced; Table 6.
Regarding B6, the “Fold Change” value worked out at 22.51.

As for B7, the “Fold Change” value was 28.35.

On to B8, for which the “Fold Change” value stood at 31.75.

Turning to B9, the “Fold Change” value worked out at 10.25.

B10: the “Fold Change” value was determined as 48.38.

On to B11, for which the “Fold Change” value worked out at 40.13.

As to B12, the “Fold Change” value is recorded as 25.70.

With B13, the “Fold Change” value is 29.07.

With B14, the “Fold Change” value is given as 17.11.
